The source of these data is patent publication US20090208453A1 (NURON BIOTECH, published 2009).

This assay concerns the target T1, recombinant human interferon-alpha/beta R2 receptor Fc chimera (R&D Systems, Product 4015-AB) (human, UniProt P48551 27-243).
T1 construct: Bought reagent, coated onto ELISA plates; also called rhIFN-R2 Fc; Fc part of the bought chimera not given
T1 sequence (looked up): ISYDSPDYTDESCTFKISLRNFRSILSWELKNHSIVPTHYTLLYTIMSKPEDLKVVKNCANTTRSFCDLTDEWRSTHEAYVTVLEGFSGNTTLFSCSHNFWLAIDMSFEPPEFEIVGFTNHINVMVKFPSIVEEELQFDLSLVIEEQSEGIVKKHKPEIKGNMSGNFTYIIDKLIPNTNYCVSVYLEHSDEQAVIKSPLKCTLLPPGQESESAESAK
Description: Receptor binding (competition): displacement of 125I-IFN-alpha from plate-coated rhIFN-R2 Fc; untreated and RP-HPLC-purified samples. How it is done:
Receptor binding competition assays were performed using purified rhIFN-beta1b from Bar 25 protein and BETASERON, and unprocessed Bar 25 protein and BETASERON. The assay was performed using the recombinant human interferon-alpha/beta R2 receptor Fc (rhIFN-R2 Fc) chimera (R&D Systems, Product 4015-AB). This receptor binds both interferon-alpha and interferon-beta. ¹²⁵I-human interferon-alpha (¹²⁵I-IFN-alpha) was used as the competing reagent to avoid potential effects of radiolabeling on the rhIFN-beta1b products. rhIFN-R2 Fc was coated onto ELISA plates and ¹²⁵I-IFN-alpha was added at a fixed concentration to each well. […] Unlabeled IFN-alpha was used as a control. The amount of ¹²⁵I-IFN-alpha remaining bound to rhIFN-R2 Fc after the competition was measured and plotted as a function of the rhIFN-beta1b concentration. The resulting curves for each product and purified rhIFN-beta1b sample were compared.

B1: Bar 25 protein (recombinant human interferon beta-1b, C17S IFN-beta-1b, refolded under high pressure) (ligand)
chain: SYNLLGFLQRSSNFQSQKLLWQLNGRLEYCLKDRMNFDIPEEIKQLQQFQKEDAALTIYEMLQNIFAIFRQDSSSTGWNETIVENLLANVYHQINHLKTVLEEKLEKEDFTRGKLMSSLHLKRYYGRILHYLKAKEYSHCAWTIVRVEILRNFYFINRLTGYLRN
notes: Non-glycosylated, expressed in E. coli; It was tested untreated and after RP-HPLC/SEC-HPLC isolation; The research-grade material was partially deamidated; also called rhIFN beta-1b; rhIFN-beta1b
On to B1, for which the binding result is “binds”.
